Results reported in patent US20030060613, “Novel use of calreticulin in modulating hormone responsiveness and new pharmaceuticals for treating cancer, osteoporosis and chronic inflammatory disease” (published 2003).

Legend:
[1] = system: RAR/RXR endogenous retinoic acid receptors (Mus musculus); assay: cell_activity; conditions: P19 cells, 10^-7 M retinoic acid; 0.49 without retinoic acid; 61.95 with 100 uM KLGFFKR
[2] = molecular target: Androgen receptor DNA-binding domain (Rattus norvegicus, UniProt P15207 P15207:541-614); assay: EMSA; conditions: tags: GST fusion (pGEX-3X); label: 32P
Chain of Androgen receptor DNA-binding domain (P15207 541-614, one chain of several): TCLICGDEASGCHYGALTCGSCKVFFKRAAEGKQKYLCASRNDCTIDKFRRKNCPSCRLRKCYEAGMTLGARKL
Procedure: As described in Rennie et al., 1993, DNA binding domain of recombinant rat androgen receptor was prepared as a GST-fusion protein using the pGEX-3X vector and purified by glutathione-agarose affinity chromatography. p60 (calreticulin) was purified by affinity chromatography on KLGFFKR-sepharose, followed by gel electrophoresis as described in detail in Rojiani et al., 1991. […] Recombinant calreticulin (GST-fusion protein) was prepared as described by Baksh and Michalak, 1991. Gel retardation assays were carried out as described by Rennie et al., 1993. To analyze the effect of p60, or recombinant calreticulin, on receptor-DNA binding activity, the AR was pre-incubated with p60 for 30 min at 4° C. To analyze the effects of synthetic peptides, anti-calreticulin antibody, and non-immune IgG on p60 inhibition of AR-ARE binding, the peptide, antibody or IgG were pre-incubated with p60 for 30 min at 4° C. The androgen receptor preparation was then added to these mixtures and further incubated for 30 min at 4° C.
Affinity purified DNA binding domain of the recombinant rat androgen receptor (AR) was pre-incubated with or without the indicated concentrations of purified p60 at 4° C. for 30 min. After this pre-incubation the reaction mixtures were incubated with ³²P-labeled 26 base pair ARE (Rennie et al., 1993) (androgen response element), and analyzed by gel retardation assay. […]

| Molecule | activity (corrected luc/bgal) [1] | binding result [2] |
| --- | --- | --- |
| bRARE (RAR-beta upstream 32 bp RARE, luciferase reporter) | 25.7 |  |
| ARE, rat probasin promoter -115 to -140 (dsDNA) DNA 1: GTAAAGTACTCCAAGAACCTATTTGT DNA 2: ACAAATAGGTTCTTGGAGTACTTTAC |  | binds |
